Assay results: article PMC2954370 (Antiviral research, 2010)
Where a chain is given by its changes, count along the chain named.

B1: HIV-1 envelope glycoprotein gp120 of isolate Bal (natural protein)
chain: not shown
B2: m36 mutant m36.4 (VHH)
VHH: QVQLVQSGGGLVQPGGSLRLSCAASAFDFSDYEMSWVREAPGKGLEWIGEINDSGNTIYNPSLKSRVTISRDNSKNTLYLQMNTLRAEDTAIYYCAIYGGNSGGEYWGQGTLVTVSS
B3: m36 mutant m36.5 (VHH)
VHH: B2 VHH with R86S
B4: m36 mutant m36.1 (VHH)
VHH: B2 VHH with A26T, S65N

Experiments:
[1] = target: fusion protein of m36 with human IgG1 Fc (human); experiment: ELISA
[2] = target: B1; experiment: cell-based or functional assay
[3] = target: T1, HIV-1 Env gp140 of isolate JRFL (HIV-1 isolate JRFL (clade B), UniProt Q75760); experiment: cell-based or functional assay
[4] = target: B1; experiment: ELISA
[5] = target: T1, HIV-1 Env gp140 of isolate JRFL; experiment: ELISA

Binder | binding result [1] | IC50 of neutralisation of HIV-1 Bal Env-pseudotyped virus, HOS-CD4-CCR5 cells [2] [nM] | IC50 of neutralisation of HIV-1 JRFL Env-pseudotyped virus, HOS-CD4-CCR5 cells [3] [nM] | binding result [4] | binding result [5]
B1 | binds | – | – | – | –
B2 | – | 11 | 27 | – | –
B3 | – | – | – | binds | binds
B4 | – | – | – | binds | binds
